“And” between values parts separate entries of the source, which are not always exact repeats. Equal entries are not always repeated. No end group written: not given here.
B1: Hsp72 T636E tracer FITC-Ahx-GSGPEIEEVD (peptide)
peptide: GSGPEIEEVD-OH
modifications: not fully specified (N-terminus); printed as FITC-Ahx-GSGPEIEEVD; also: methods name the dye 5-FAM, not FITC
notes: also called phosphomimetic T636E Hsp72 fluorescent tracer; source: synthetic peptide, bought: GenScript
B3: C terminus of Hsc70 interacting protein (CHIP) (enzyme, human, UniProt Q9UNE7 1-303, looked up)
chain: MKGKEEKEGGARLGAGGGSPEKSPSAQELKEQGNRLFVGRKYPEAAACYGRAITRNPLVAVYYTNRALCYLKMQQHEQALADCRRALELDGQSVKAHFFLGQCQLEMESYDEAIANLQRAYSLAKEQRLNFGDDIPSALRIAKKKRWNSIEERRIHQESELHSYLSRLIAAERERELEECQRNHEGDEDDSHVRAQQACIEAKHDKYMADMDELFSQVDEKRKKRDIPDYLCGKISFELMREPCITPSGITYDRKDIEEHLQRVGHFDPVTRSPLTQEQLIPNLAMKEVIDAFISENGWVEDY
notes: recombinant human CHIP, E3 ubiquitin ligase with a TPR domain; source: E. coli BL21(DE3), purified (Ni-NTA, TEV cleavage, SEC); not shown: His6, N-terminal, cleaved

What was measured:
Details in all cases: both partners purified
[1] = target: T1, DnaJB4 (human, UniProt Q9UDY4 1-337); assay: fluorescence polarisation; saturation binding; 20 nM fluorescent Hsp72 tracer, J-domain protein titrated in 2x dilutions (110-0.013 μM told for DnaJB4); 50 mM Tris, 15 mM NaCl, 1 mM DTT, 0.01% Triton X-100, pH 8.0; 30 min at room temperature
T1 construct: DnaJB4, human, recombinant full length class B J-domain protein; the oligomeric state of DnaJB4 is not measured here; also called WT DnaJB4; class B JDP; source: E. coli BL21 (DE3) Rosetta, purified (Ni-NTA, TEV cleavage, SEC on Superdex 200); not shown: His6, N-terminal, cleaved

[2] = target: B3; assay: fluorescence polarisation; competition; 100 μM unlabeled peptide, 1.58 μM CHIP, 20 nM Hsp72 tracer; 50 mM Hepes pH 7.4, 50 mM KCl, 0.01% Triton X-100; 30 min at room temperature
[3] = target: B1; assay: fluorescence polarisation; saturation binding; 20 nM fluorescent Hsp72 tracer, CHIP titrated in 2x dilutions (110-0.013 μM); 25 mM Hepes, 50 mM KCl, 0.01% Triton X-100, pH 7.4; 30 min at room temperature
[4] = target: T1, DnaJB4; assay: fluorescence polarisation; competition; 100 μM unlabeled peptide, 5 μM DnaJB4, 20 nM Hsp72 tracer in JDP binding buffer; 30 min at room temperature; tracer displacement relative to DMSO control

T1 sequence (Q9UDY4 whole entry): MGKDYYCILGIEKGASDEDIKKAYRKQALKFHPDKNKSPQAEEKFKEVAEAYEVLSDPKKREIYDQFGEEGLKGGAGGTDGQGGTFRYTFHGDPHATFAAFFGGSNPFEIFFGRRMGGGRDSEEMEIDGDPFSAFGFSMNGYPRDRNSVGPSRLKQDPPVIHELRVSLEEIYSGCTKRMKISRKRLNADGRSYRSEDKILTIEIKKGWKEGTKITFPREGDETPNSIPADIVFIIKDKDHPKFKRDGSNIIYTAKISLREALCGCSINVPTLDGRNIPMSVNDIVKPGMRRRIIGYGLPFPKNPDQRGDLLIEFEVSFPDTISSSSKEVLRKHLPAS

B1
binding result [1]: binds

B2: Hsp72 tracer FITC-Ahx-GSGPTIEEVD (peptide)
peptide: GSGPTIEEVD-OH
modifications: not fully specified (N-terminus); printed as FITC-Ahx-GSGPTIEEVD; also: methods name the dye 5-FAM, not FITC
notes: last 10 residues of Hsp72/HSPA1A; also called fluorescent Hsp72 tracer; Hsp72 probe; source: synthetic peptide, bought: GenScript
binding result [2]: binds
Kd [1]: 1840 nM and 1650 nM

B3
fold weakening of the affinity against the WT tracer [3]: 5 fold

B4: Hsp72 C-terminal peptide truncated of P10 (9-mer) (peptide, UniProt P0DMV8 633-641, looked up)
peptide: Ac-SGPTIEEVD-OH
notes: source: synthetic peptide, bought: GenScript
binding result [4]: binds

B5: Hsp72 C-terminal peptide truncated of P10 to P8 (7-mer PTIEEVD) (peptide)
peptide: Ac-PTIEEVD-OH
notes: last seven amino acids of Hsp72/HSPA1A; source: synthetic peptide, bought: GenScript
binding result [4]: binds

B6: Hsp72 C-terminal 10-mer peptide, unlabeled, N-acetylated (peptide)
peptide: Ac-GSGPTIEEVD-OH
notes: last 10 residues of Hsp72/HSPA1A; also called WT Hsp72 peptide; source: synthetic peptide, bought: GenScript
binding result [2]: binds

B7: Hsp72 10-mer peptide with P5 Ile replaced by Met (peptide, UniProt P0DMV8 632-641, looked up)
peptide: Ac-GSGPTMEEVD-OH
notes: also called P5 Met mutant; source: synthetic peptide, bought: GenScript
binding result [4]: binds

B8: Hsp72 C-terminal peptide truncated of P10 and P9 (8-mer) (peptide, UniProt P0DMV8 634-641, looked up)
peptide: Ac-GPTIEEVD-OH
notes: as for B4
binding result [4]: binds

Source: publication PMC8913300, “Two distinct classes of cochaperones compete for the EEVD motif in heat shock protein 70 to tune its chaperone activities” (The Journal of Biological Chemistry, 2022)
